Laboratory results from patent publication US20020058798A1 (YEDA RESEARCH AND DEVELOPMENT, published 2002).
Changes are numbered by the printed parent chain.

Assays:
[1] = molecular target: T1, Mouse Fas-IC, full (mouse, UniProt P25446 187-327); assay: yeast two-hybrid beta-galactosidase filter assay (SFY526); row = Gal4 DNA-binding-domain hybrid, column = activation-domain hybrid; ++ = strong color within 30 min
T1 construct: domain: FAS-IC (intracellular domain); also called mFAS-IC
T1 sequence (looked up): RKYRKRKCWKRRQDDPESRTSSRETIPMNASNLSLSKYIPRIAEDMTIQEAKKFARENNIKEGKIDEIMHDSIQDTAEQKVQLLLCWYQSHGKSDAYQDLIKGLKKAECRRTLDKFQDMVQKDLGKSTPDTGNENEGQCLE

[2] = molecular target: T2, Mouse Fas-IC 197-306 (mouse, UniProt P25446 218-327); assay: as above
T2 construct: range 197-306
T2 sequence (looked up): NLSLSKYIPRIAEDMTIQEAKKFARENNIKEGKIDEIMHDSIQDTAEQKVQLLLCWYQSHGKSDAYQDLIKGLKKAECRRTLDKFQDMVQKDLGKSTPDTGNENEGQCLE

[3] = molecular target: the molecule itself; assay: as above
[4] = molecular target: T3, GST-mFAS-IC I225A (GST fusion with FAS-IC containing an Ile to Ala replacement at position 225) (mouse, UniProt P25446 187-327); assay: GST pull-down: 35S-labeled FLAG-HF1 from HeLa extracts on GST fusion bound to glutathione beads, SDS-PAGE and autoradiography
T3 construct: also called GST-FAS-IC with a replacement at the lpr^cg mutation site; not shown: Glutathione S-transferase (GST)
T3 sequence (looked up): T1 sequence (looked up) with I60A
Text: The [³⁵S] labeled proteins of the HeLa cells including the labeled FLAG-MORT1 fusion protein having been first extracted were subjected to interaction with the various GST and GST-FAS-IC proteins (bound to glutathione beads) and then to SDS-PAGE. As controls in all of the interaction experiments, extracts of HeLa cells transfected with luciferase were subjected to interactions with the GST and GST-FAS-IC fusion proteins and SDS-PAGE. FIGS. 1A and B are also described in Example 1.
Expression of HF1 (MORT-1) molecules fused at their N terminus with the FLAG octapeptide (FLAG-HF1) yielded in HeLa cells proteins of four distinct sizes—about 27, 28, 32, and 34 kD. […] Thus the in vitro interaction was evaluated by assessing, by autoradiography following SDS-PAGE, the binding of [³⁵S] metabolically labeled HF1, produced in transfected HeLa cells as a fusion with the FLAG octapeptide (FLAG-HF1), to GST, GST fusion with the human or mouse FAS-IC (GST-huFAS-IC, GST-mFAS-IC) or to GST fusion with FAS-IC containing an Ile to Ala replacement mutation at position 225.

[5] = molecular target: T4, SNF1 (UniProt P06782 1-633, limits assumed); assay: yeast two-hybrid beta-galactosidase filter assay (SFY526); row = Gal4 DNA-binding-domain hybrid, column = activation-domain hybrid; + = strong color within 90 min; positive control
T4 sequence (looked up): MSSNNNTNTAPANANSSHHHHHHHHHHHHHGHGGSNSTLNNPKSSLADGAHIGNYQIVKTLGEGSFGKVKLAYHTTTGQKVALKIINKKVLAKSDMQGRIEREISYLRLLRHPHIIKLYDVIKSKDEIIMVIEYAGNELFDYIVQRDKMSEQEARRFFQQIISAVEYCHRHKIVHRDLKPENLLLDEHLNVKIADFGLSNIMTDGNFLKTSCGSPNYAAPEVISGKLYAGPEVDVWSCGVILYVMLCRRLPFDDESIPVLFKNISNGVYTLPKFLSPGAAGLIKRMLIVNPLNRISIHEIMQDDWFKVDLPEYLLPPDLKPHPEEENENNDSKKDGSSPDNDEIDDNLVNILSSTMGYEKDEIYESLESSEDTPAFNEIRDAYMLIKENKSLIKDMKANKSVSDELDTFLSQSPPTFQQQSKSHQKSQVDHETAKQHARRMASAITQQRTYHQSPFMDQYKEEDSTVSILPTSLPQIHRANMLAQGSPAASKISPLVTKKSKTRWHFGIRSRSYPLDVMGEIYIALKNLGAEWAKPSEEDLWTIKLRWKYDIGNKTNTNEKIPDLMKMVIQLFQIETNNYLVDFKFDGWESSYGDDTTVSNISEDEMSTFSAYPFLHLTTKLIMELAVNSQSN

B1: MORT-1 (full) (other)
chain: VNQAPECRFGGGILGPLGKRRDLARASEPRTEGARRAGPQPRPLADPAMDPFLVLLHSVSSSLSSSELTELKFLCLGRVVKRKLERVQSGLDLFSMLLEQNDLEPGHTELLRELLASLRRHDLLRRVDDFEAGAAAGAAPGEEDLCAAFNVICDNVGKDWRRLARQLKVSDTKIDSIEDRYPRNLTERVRESLRIWKNTEKENATVAHLVGALRSCQMNLVADLVQEVQQARDLQNRSGAMSPMSWNSDASTSEAS
notes: The Gal4 part is not written as a piece; Met 49 is a possible translation start; also called HF1; HF-1
[1]
  binding result: binds
[2]
  binding result: binds
[3]
  binding result: binds

B2: FLAG-MORT1 fusion protein (MORT-1 N-linked to the FLAG octapeptide) (other)
chain: B1 chain
modifications: metabolically labeled with [35S]methionine (and [35S]cysteine for the co-immunoprecipitations)
notes: also called FLAG-HF1; HF1-FLAG; not shown: FLAG octapeptide (Eastman Kodak)
[4]
  binding result: no binding

B3: SNF4 (other, UniProt P12904 1-322, looked up)
chain: MKPTQDSQEKVSIEQQLAVESIRKFLNSKTSYDVLPVSYRLIVLDTSLLVKKSLNVLLQNSIVSAPLWDSKTSRFAGLLTTTDFINVIQYYFSNPDKFELVDKLQLDGLKDIERALGVDQLDTASIHPSRPLFEACLKMLESRSGRIPLIDQDEETHREIVVSVLTQYRILKFVALNCRETHFLKIPIGDLNIITQDNMKSCQMTTPVIDVIQMLTQGRVSSVPIIDENGYLINVYEAYDVLGLIKGGIYNDLSLSVGEALMRRSDDFEGVYTCTKNDKLSTIMDNIRKARVHRFFVVDDVGRLVGVLTLSDILKYILLGSN
[5]
  binding result: binds
